Several values for one entry are separate records, joined by “and”; a condition that tells them apart may be missing. Equal values may be shown once.
Key:
[1] = molecular target: M. fascicularis KLB and human FGFR1c co-expressed on HEK293/MfKLB/hFGFR1c/SRE-Luc cells (M. fascicularis; human, UniProt A0A2K5WB58 1-1044); test: cell-based or functional assay
[2] = molecular target: T1, extracellular domain of human FGFR1c expressed with C-terminal V5 and hexahistidine tags (human, UniProt P11362 22-376); test: SPR, mAb captured, 25 C
T1 construct: also called hFGFR1c-V5-6His
T1 sequence: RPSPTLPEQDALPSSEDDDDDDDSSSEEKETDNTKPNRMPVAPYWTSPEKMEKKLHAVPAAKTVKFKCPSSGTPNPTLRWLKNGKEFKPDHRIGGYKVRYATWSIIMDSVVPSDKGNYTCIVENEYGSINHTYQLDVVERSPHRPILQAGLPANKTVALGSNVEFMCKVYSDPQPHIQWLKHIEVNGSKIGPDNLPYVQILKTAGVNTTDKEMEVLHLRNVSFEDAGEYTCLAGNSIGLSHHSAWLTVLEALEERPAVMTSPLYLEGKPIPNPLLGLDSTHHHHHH
Method: (§1) Equilibrium dissociation constants (KD values) for human KLB or human FGFR1c binding to purified anti-KLB/FGFR1c monoclonal antibodies were determined using a real-time surface plasmon resonance biosensor using a Biacore T-200 or 4000 instrument. The Biacore sensor surface was derivatized by amine coupling with either a polyclonal rabbit anti-mouse antibody (GE, # BR-1008-38) or with a monoclonal mouse anti-human Fc antibody (GE, # BR-1008-39) to capture anti-KLB/FGFR1c monoclonal antibodies expressed with either a mouse Fc or a human Fc, respectively. All Biacore binding studies were performed in a buffer composed of 0.01M HEPES pH 7.4, 0.15M NaCl, 3mM EDTA, 0.05% v/v Surfactant P20 (HBST running buffer). […] Association of hKLB-HA-6His or hFGFR1c-V5-6His to the captured monoclonal antibody was monitored for 3.5 to 4 minutes and the dissociation of hKLB-HA-6His or hFGFR1c-V5-6His in HBST running buffer was monitored for 8-12 minutes. All the binding kinetics experiments were performed at 25° C. or 37° C. Kinetic association (kₐ) and dissociation (kd) rate constants were determined by fitting the real-time sensorgrams to a 1:1 binding model using Scrubber 2.0c curve fitting software. Binding dissociation equilibrium constants (KD) and dissociative half-lives (t½) were calculated from the kinetic rate constants as: […]

[3] = molecular target: T1, extracellular domain of human FGFR1c …; test: SPR, mAb captured, 37 C
Method: as §1

[4] = molecular target: T2, full-length human FGFR1c on HEK293/hFGFR1c/SRE-luc cells (human, UniProt P11362 22-822); test: FACS on stable HEK293 cells
T2 construct: amino acids 1-733 of NP_075593
Method: To determine binding specificity of the monoclonal anti-KLB/FGFR1c antibodies, the antibodies were tested in a fluorescence-activated cell sorting (FACS) binding assay to cell lines expressing human FGFR1c, human KLB, and both human FGFR1c and human KLB. HEK293 cell lines were generated that stably express full-length human FGFR1c (hFGFR1c; SEQ ID NO:433) or full-length human KLB (hKLB; SEQ ID NO:434) or both human FGFR1c and human KLB, along with a luciferase reporter [SRE (serum response element)-luciferase, SA Bioscience, #CLS-010L]. The resulting cell lines, referred to as HEK293/hFGFR1c/SRE-luc, HEK293/hKLB/SRE-luc, and HEK293/hKLB/hFGFR1c/SRE-luc, respectively, were maintained in DMEM supplemented with 10% FBS, NEAA, penicillin/streptomycin, 1 μg/mL puromycin and […] hygromycin B, 1 μg/mL puromycin and 500 μg/mL G418, or all three antibiotics.
For the FACS analysis, HEK293 parental, HEK293/hFGFR1c/SRE-luc, HEK293/hKLB/SRE-luc, and HEK293/hKLB/hFGFR1c/SRE-luc cells were dissociated and plated onto 96-well v-bottom plates at 5 x 10⁵ cells/well in PBS containing 1% FBS. […] Cells were filtered and subsequently analyzed on a Hypercyte Flow Cytometer (Intellicyt Corp.). Unstained and secondary antibody alone controls were also tested for binding to all cell lines. The results were analyzed using FlowJo version 9.52 software and geometric mean (Geom. Mean) of fluorescence for viable cells was determined. Geom. mean of fluorescence for each antibody was then normalized to Geom. mean of unstained cells to obtain relative binding of antibody (binding ratios) per each cell type.

[5] = molecular target: human KLB and human FGFR1c co-expressed on HEK293/hKLB/hFGFR1c/SRE-luc cells (human, UniProt Q86Z14 1-1044; P11362 22-822); test: cell-based or functional assay
[6] = molecular target: cell-surface human FGFR1c (amino acids 1-731 of NP_075594) with cell-surface human KLB on … (human, UniProt P11362 22-822); test: cell-based or functional assay
[7] = molecular target: T3, extracellular domain of human KLB expressed with C-terminal HA and hexahistidine tags (human, UniProt Q86Z14 1-996); test: SPR, mAb captured, 25 C
T3 construct: also called hKLB-HA-6His; hKLB-HA-6his
T3 sequence: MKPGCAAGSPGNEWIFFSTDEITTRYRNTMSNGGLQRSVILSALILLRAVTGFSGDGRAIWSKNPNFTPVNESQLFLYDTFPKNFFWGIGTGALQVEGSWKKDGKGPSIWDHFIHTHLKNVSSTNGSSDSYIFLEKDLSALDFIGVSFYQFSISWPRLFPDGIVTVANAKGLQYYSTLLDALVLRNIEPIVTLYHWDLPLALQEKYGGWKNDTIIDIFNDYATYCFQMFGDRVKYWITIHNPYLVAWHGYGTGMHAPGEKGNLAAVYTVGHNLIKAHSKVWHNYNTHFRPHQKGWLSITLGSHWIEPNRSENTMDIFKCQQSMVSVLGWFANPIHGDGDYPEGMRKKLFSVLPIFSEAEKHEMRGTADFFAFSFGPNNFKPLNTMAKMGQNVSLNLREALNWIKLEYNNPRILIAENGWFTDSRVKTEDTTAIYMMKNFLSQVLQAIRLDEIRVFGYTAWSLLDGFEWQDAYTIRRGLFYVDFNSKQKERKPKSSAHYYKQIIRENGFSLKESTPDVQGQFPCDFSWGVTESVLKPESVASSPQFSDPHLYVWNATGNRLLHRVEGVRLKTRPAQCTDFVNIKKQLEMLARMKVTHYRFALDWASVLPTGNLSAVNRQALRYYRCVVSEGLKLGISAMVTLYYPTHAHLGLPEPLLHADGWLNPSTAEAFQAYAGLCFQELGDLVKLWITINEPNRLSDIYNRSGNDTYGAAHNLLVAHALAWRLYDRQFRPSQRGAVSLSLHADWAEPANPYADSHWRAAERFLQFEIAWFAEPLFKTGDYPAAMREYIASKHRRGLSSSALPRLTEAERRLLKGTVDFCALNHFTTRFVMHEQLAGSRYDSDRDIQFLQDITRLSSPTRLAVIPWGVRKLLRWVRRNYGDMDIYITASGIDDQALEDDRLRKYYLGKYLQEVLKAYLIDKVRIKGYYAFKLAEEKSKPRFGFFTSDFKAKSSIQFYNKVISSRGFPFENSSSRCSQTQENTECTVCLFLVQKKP
Method: as §1

[8] = molecular target: T3, extracellular domain of human KLB …; test: SPR, mAb captured, 37 C
Method: as §1

[9] = molecular target: mouse KLB and mouse FGFR1c co-expressed on HEK293/mKLB/mFGFR1c/SRE-Luc cells (mouse); test: cell-based or functional assay

Sequence of M. fascicularis KLB and human FGFR1c co-expressed on HEK293/MfKLB/hFGFR1c/SRE-Luc cells (chain, as listed by the source, chain 1 of 2): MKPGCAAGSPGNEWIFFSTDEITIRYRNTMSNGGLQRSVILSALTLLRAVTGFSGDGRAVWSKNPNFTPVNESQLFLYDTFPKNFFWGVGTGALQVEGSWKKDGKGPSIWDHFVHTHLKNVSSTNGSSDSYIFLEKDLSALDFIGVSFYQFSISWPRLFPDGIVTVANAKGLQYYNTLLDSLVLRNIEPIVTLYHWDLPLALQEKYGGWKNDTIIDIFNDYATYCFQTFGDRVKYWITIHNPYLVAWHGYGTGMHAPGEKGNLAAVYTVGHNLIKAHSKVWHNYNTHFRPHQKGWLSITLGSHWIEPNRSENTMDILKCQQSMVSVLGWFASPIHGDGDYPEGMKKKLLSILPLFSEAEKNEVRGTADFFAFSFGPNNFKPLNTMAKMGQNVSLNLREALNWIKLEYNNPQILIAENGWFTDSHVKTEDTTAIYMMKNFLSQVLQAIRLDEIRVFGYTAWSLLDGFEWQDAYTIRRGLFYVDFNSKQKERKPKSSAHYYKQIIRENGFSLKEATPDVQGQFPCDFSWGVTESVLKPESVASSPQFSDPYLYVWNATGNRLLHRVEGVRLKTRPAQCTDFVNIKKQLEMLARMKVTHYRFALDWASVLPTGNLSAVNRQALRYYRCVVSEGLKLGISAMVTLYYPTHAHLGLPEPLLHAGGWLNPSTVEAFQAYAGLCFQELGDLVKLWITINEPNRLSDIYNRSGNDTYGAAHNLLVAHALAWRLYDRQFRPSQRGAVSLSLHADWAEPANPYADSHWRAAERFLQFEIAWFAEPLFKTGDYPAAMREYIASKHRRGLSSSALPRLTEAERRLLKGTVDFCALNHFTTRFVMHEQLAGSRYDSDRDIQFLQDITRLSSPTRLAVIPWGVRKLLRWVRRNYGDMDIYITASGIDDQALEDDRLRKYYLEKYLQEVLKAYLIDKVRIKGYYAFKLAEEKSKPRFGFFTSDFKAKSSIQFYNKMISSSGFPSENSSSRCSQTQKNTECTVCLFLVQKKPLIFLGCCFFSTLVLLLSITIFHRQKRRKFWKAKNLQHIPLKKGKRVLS
Sequence of M. fascicularis KLB and human FGFR1c co-expressed on HEK293/MfKLB/hFGFR1c/SRE-Luc cells (chain, as listed by the source, chain 2 of 2): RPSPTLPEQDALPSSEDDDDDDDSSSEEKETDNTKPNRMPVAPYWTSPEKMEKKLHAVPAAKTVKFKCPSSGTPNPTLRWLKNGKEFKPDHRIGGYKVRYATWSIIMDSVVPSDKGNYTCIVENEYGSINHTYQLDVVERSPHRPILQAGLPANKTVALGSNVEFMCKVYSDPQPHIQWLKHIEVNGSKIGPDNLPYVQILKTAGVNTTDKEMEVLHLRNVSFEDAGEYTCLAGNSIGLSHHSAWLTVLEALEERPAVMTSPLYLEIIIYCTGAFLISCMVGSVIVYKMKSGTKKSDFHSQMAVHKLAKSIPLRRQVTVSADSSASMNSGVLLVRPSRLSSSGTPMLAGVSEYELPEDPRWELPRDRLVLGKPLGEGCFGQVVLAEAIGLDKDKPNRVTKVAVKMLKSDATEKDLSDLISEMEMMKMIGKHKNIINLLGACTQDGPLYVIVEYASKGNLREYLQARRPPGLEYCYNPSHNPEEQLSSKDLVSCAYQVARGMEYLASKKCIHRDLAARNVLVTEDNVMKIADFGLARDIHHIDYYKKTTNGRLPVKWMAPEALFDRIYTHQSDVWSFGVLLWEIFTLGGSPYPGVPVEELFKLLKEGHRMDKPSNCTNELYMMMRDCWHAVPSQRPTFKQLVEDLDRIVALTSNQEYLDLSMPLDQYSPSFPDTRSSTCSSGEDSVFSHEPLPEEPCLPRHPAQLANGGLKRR
Sequence of cell-surface human FGFR1c (amino acids 1-731 of NP_075594) with cell-surface human KLB on … (P11362 22-822): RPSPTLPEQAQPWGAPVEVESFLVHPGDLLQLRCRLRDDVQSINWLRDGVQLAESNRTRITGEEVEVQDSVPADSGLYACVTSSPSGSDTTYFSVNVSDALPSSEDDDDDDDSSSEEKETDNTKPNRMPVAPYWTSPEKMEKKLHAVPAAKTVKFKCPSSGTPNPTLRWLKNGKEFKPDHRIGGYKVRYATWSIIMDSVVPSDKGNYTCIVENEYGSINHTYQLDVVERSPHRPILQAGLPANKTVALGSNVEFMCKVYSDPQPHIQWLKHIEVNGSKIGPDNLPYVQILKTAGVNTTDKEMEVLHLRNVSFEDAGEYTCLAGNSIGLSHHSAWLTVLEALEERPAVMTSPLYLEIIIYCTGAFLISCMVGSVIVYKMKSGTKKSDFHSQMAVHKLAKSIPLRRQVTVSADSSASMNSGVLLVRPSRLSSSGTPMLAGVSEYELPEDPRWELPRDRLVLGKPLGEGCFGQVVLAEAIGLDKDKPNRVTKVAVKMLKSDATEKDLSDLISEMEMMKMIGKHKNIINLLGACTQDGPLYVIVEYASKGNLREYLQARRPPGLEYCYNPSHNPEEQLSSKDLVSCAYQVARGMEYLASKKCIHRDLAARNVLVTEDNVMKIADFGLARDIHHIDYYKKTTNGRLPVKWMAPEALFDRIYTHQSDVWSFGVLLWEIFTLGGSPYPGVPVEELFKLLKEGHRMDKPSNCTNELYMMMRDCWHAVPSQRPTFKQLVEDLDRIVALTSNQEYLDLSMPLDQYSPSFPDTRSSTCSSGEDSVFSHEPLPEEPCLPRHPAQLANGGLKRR
T2 sequence (P11362 other isoform, or with tags, fused parts or gaps limits assumed): as the sequence (chain, as listed by the source, chain 2 of 2) above

B1: H2bM8833N (antibody, V domains shown)
VH: QVQLVESGGGVVQPGRSLRLSCAASGFTFSRYGIHWVRQAPGKGLEWVAVIWYDGSNKYYADSLKGRFTISRDNSKNTLYLQMNSLRAEDTAVYYCARDQGNYIDYWGQGTLVTVSS
VL: AIQMTQSPSSLSASVGDRVTITCRTSQGIRNDLGWYQQKPGKVPKLLIYAASSLQSGVPSRFSGSGSGTDFTLTISSLQPEDFATYYCLQDYNYPFTFGPGTKVDIK
notes: mouse IgG2 Fc (H2bM prefix)
IC50, inhibition of 10 nM mfFGF21 [1]: 0.099 nM
Maximum Inhibition (%) of 10 nM mfFGF21 [1]: 16%
180 nM hFGFR1c-V5-6His Bind (RU) [2]: 1.9 RU
180 nM hFGFR1c-V5-6His Bind (RU) [3]: 1.4 RU
binding ratio to unstained cells [4]: 9 fold

B2: H2bM8096N (antibody, V domains shown)
VH: QVQLVESGGGVVQPGRSLRLSCAASGFTFSSYGLHWVRQAPGKGLEWVAVIWHDGSHKYYADSVKGRFTISRDNSKNTVYLQMNSLRAEDTAVYYCARDGIPVAEDYYLYGMDVWGQGTTVTVSS
VL: EIVLTQSPGTLSLSPGERATLSCRASQSVDSSYLAWYHQKPGQAPRLLIYGASSRATGIPDRFSGSGSGTDFTLTISRLEPEDFAVYYCQQYGSSRTFGQGTKVEIK
notes: mouse IgG2 Fc (H2bM prefix)
180 nM hFGFR1c-V5-6His Bind (RU) [2]: -0.7 RU
180 nM hFGFR1c-V5-6His Bind (RU) [3]: -1.2 RU

B3: scFv8092N-IgG4mutFc x scFv8900P-IgG4mutFc* Heterodimer (bispecific antibody)
chain 1: not shown
chain 2: QVQLVESGGGVVQPGRSLRLSCVASGFTFSSYGMHWVRQAPGKGLEWVAVISFDGSNKYYADSVKGRFTISRDNSKNTLYLQMNSLRPADTAVYYCAKDRSNYYYFGMDVWGQGTTVTVSSGGGGSGGGGSGGGGSDIVMTQTPLSLPVTPGEPASISCRSSQSLLDSDDGNTYLDWYLQKPGQSPQLLIYTLSYRASGVPDRFSGSGSGTDFTLKISRVEAEDVGVYYCMQRIEFPLTFGGGTKVEIKGGGGSGGGGSGGGGSESKYGPPCPPCPAPEFLGGPSVFLFPPKPKDTLMISRTPEVTCVVVDVSQEDPEVQFNWYVDGVEVHNAKTKPREEQFNSTYRVVSVLTVLHQDWLNGKEYKCKVSNKGLPSSIEKTISKAKGQPREPQVYTLPPSQEEMTKNQVSLTCLVKGFYPSDIAVEWESNGQPENNYKTTPPVLDSDGSFFLYSRLTVDKSRWQEGNVFSCSVMHEALHNRFTQKSLSLSPGK
notes: also called 8900P ScFv-Fc*/8092N ScFv-Fc; H4H8900P ScFv-Fc*/H4H8092N ScFv-Fc
EC50, SRE-luc activation without ligand [5]: 0.28 nM
IC50, inhibition of 1 nM 6His-hFGF21 [5]: 0.39 nM
Maximum Activation (%) [5]: 0.5%
Maximum Inhibition (%) [5]: 90%
% Activation [6]: 1.6%
EC50, SRE-luc activation [6]: > 5 nM
20 nM hKLB-HA-6His Bind (RU) [7]: 27.3 RU
Kd [7]: 0.318 nM
koff [7]: 3.94e-05 s⁻¹
kon [7]: 124000 M⁻¹ s⁻¹
t1/2 [7]: 4.89 h
180 nM hFGFR1c-V5-6His Bind (RU) [2]: 0.9 RU
binding result [2]: no binding (tested: 180 nM)
20 nM hKLB-HA-6His Bind (RU) [8]: 86.7 RU
Kd [8]: 1.3 nM
koff [8]: 0.000178 s⁻¹
kon [8]: 137000 M⁻¹ s⁻¹
t1/2 [8]: 1.08 h
180 nM hFGFR1c-V5-6His Bind (RU) [3]: 0.4 RU

B4: mouse FGF21 (ligand, UniProt Q9JJN1 29-210, looked up)
chain: AYPIPDSSPLLQFGGQVRQRYLYTDDDQDTEAHLEIREDGTVVGAAHRSPESLLELKALKPGVIQILGVKASRFLCQQPDGALYGSPHFDPEACSFRELLLEDGYNVYQSEAHGLPLRLPQKDSPNQDATSWGPVRFLPMPGLLHEPQDQAGFLPPEPPDVGSSDPLSMVEPLQGRSPSYAS
EC50, SRE-luc activation by ligand [9]: 0.33 nM and 0.37 nM

Source: patent publication US20170174769A1 (Regeneron, published 2017)
